Assay results taken from patent US12617856B2, “Protease-cleavable substrates and methods of use thereof” (CytomX Therapeutics, Inc., priority 2022, dated 2026).
Starred links: 1 amine or outer side, 2 acyl side, 3 side chain; linkers in the order of their positions; H or OH if unused. No end group written: not given here. *: point of attachment. K(DNP) = O=C([C@H](CCCCNc1ccc([N+](=O)[O-])cc1[N+](=O)[O-])N[*:1])[*:2]; Mca = COc1ccc2c(CC(=O)*)cc(=O)oc2c1

Key:
Format in all cases: biochemical
MMP2 = target: T1, MMP2 (Homo sapiens, UniProt P08253); test: Peptide probe cleavage assay (internally quenched MCA/DNP probes) with MMP2; settings: 20 μM internally quenched peptide probe, 20 nM protease, 37° C.
T1 sequence (P08253 110-660): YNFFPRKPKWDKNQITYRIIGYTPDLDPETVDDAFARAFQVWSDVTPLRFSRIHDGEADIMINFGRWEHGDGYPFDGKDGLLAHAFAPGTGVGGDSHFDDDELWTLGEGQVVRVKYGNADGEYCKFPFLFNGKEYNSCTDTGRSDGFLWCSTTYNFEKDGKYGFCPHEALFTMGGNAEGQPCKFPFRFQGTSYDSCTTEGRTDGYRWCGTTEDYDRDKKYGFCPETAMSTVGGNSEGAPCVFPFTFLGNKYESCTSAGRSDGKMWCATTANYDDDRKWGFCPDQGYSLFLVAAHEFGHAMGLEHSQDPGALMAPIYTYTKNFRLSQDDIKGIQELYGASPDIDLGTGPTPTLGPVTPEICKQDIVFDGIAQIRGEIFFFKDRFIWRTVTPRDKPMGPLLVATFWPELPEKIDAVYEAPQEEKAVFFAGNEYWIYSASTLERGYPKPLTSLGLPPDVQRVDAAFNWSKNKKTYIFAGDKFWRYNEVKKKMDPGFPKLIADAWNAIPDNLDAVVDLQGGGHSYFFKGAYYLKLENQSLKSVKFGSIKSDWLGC

MMP14 = MMP14 (Homo sapiens, UniProt P50281); test: Peptide probe cleavage assay (internally quenched MCA/DNP probes) with MMP14; settings: 20 μM internally quenched peptide probe, 20 nM protease, 37° C.; — = below limit of quantification
[1] = target: T2, membrane type serine protease 1 (MT-SP1) (Homo sapiens, UniProt Q9Y5Y6); test: Peptide probe cleavage assay (internally quenched MCA/DNP probes) with MT-SP1; settings: 20 μM internally quenched peptide probe, 20 nM protease, 37° C.
T2 sequence (Q9Y5Y6 1-855): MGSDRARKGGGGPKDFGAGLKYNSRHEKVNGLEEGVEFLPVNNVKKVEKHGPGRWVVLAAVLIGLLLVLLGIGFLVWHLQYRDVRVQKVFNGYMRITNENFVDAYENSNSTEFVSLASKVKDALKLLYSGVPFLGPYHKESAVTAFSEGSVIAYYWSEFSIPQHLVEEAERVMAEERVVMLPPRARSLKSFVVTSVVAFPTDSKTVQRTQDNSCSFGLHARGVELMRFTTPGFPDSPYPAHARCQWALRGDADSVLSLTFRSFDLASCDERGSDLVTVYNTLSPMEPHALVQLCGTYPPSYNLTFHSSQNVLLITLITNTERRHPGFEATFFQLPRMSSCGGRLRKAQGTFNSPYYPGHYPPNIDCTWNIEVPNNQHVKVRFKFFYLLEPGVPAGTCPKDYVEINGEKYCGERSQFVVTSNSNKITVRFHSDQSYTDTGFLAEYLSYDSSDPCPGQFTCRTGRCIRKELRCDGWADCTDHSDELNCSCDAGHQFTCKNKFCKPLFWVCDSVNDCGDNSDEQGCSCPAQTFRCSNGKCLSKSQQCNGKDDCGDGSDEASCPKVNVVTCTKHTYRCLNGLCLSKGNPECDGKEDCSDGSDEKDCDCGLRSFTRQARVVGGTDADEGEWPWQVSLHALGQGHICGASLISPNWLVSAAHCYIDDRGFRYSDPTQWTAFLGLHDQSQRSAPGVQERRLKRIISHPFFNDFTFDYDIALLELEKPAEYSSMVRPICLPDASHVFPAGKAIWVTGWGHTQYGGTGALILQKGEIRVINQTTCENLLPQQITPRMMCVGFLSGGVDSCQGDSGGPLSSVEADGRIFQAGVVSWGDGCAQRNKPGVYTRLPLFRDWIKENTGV

MMP9 = MMP9 (Homo sapiens, UniProt P14780); test: Peptide probe cleavage assay (internally quenched MCA/DNP probes) with MMP9; settings: 20 μM internally quenched peptide probe, 20 nM protease, 37° C.
MMP9, sequence (P14780 94-707): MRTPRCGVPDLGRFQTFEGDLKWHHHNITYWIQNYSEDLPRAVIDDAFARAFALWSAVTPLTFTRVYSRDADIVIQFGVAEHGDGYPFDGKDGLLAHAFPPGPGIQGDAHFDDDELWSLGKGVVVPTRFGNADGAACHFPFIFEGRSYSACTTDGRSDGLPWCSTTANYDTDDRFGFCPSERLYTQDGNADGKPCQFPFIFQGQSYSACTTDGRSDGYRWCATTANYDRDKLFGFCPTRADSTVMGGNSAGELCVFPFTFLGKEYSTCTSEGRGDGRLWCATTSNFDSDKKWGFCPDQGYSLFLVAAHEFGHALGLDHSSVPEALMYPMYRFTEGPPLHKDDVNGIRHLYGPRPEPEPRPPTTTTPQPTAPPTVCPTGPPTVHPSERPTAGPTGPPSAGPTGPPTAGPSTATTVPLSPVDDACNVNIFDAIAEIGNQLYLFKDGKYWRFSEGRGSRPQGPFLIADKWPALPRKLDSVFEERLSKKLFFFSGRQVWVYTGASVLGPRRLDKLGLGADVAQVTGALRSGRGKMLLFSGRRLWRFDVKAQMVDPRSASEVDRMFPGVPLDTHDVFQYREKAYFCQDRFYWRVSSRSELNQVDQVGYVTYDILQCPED

[2] = target: urokinase-type plasminogen activator (uPA) (Homo sapiens, UniProt P00749); test: Peptide probe cleavage assay (internally quenched MCA/DNP probes) with uPA; settings: 20 μM internally quenched peptide probe, 20 nM protease, 37° C.; — = below limit of quantification

Substance	Probe Cleavage (pM/s) MMP2 (MMP2) [pM/s]	Probe Cleavage (pM/s) MMP14 (MMP14) [pM/s]	Probe Cleavage (pM/s) MT-SP1 [1] [pM/s]	Probe Cleavage (pM/s) MMP9 (MMP9) [pM/s]	Probe Cleavage (pM/s) uPA [2] [pM/s]
CM PWGLRS: internally quenched MCA/DNP peptide probe of design SEQ ID NO: 698, CM PWGLRS (SEQ ID NO: 48) (also: MCA/DNP internal quench labels, places not given here)	3800	4380	1230	3830	–
CM PWGLAGRS: internally quenched MCA/DNP probe SEQ ID NO: 699 with one residue replaced by Ala, CM PWGLAGRS (SEQ ID NO: 690) (not fully specified (N-terminus, C-terminus); also: MCA/DNP internal quench labels, places not given here)	–	–	–	–	126
CM PWGLSGRA: internally quenched MCA/DNP probe SEQ ID NO: 699 with one residue replaced by Ala, CM PWGLSGRA (SEQ ID NO: 693) (not fully specified (N-terminus, C-terminus); also: MCA/DNP internal quench labels, places not given here)	–	–	–	–	380
CM RSPWGL: internally quenched MCA/DNP peptide probe of design SEQ ID NO: 698, CM RSPWGL (SEQ ID NO: 90) (also: MCA/DNP internal quench labels, places not given here)	11700	9580	2390	25500	3210
(MCA)-Ser-Pro-Trp-Gly-Leu-Ser-Gly-Arg-Gly-Ser-Lys (DNP)-D-Arg (Mca-SPWGLSGRGS-{K(DNP)-dR}; SMILES COc1ccc2c(CC(=O)N[C@@H](CO)C(=O)N3CCC[C@H]3C(=O)N[C@@H](Cc3c[nH]c4ccccc34)C(=O)NCC(=O)N[C@@H](CC(C)C)C(=O)N[C@@H](CO)C(=O)NCC(=O)N[C@@H](CCCNC(=N)N)C(=O)NCC(=O)N[C@@H](CO)C(=O)N[C@@H](CCCCNc3ccc([N+](=O)[O-])cc3[N+](=O)[O-])C(=O)N[C@H](CCCNC(=N)N)C(=O)O)cc(=O)oc2c1) [CM PWGLSGR]	–	–	–	–	48.3
CM AWGLSGRS: internally quenched MCA/DNP probe SEQ ID NO: 699 with one residue replaced by Ala, CM AWGLSGRS (SEQ ID NO: 686) (not fully specified (N-terminus, C-terminus); also: MCA/DNP internal quench labels, places not given here)	816	224	–	–	–
CM LSGRSPAGL: internally quenched MCA/DNP probe of design SEQ ID NO: 703, X1 Arg, X2 Ala, CM LSGRSPAGL (SEQ ID NO: 694) (also: MCA/DNP internal quench labels, places not given here)	–	190	–	–	–

Second part, the substance after the results:

Probe Cleavage (pM/s) MMP2 (MMP2) [pM/s]	Probe Cleavage (pM/s) MMP14 (MMP14) [pM/s]	Probe Cleavage (pM/s) MT-SP1 [1] [pM/s]	Probe Cleavage (pM/s) MMP9 (MMP9) [pM/s]	Probe Cleavage (pM/s) uPA [2] [pM/s]	Substance
–	–	13.0	–	1.80	CM PWGLSGAS: internally quenched MCA/DNP probe SEQ ID NO: 699 with one residue replaced by Ala, CM PWGLSGAS (SEQ ID NO: 692) (not fully specified (N-terminus, C-terminus); also: MCA/DNP internal quench labels, places not given here)
202	29.7	–	456	–	CM PWGASGRS: internally quenched MCA/DNP probe SEQ ID NO: 699 with one residue replaced by Ala, CM PWGASGRS (SEQ ID NO: 689) (not fully specified (N-terminus, C-terminus); also: MCA/DNP internal quench labels, places not given here)
66.4	–	–	581	–	(MCA)-Gly-Ser-Trp-Gly-Leu-Ser-Gly-Arg-Ser-Gly-Lys (DNP)-D-Arg (Mca-GSWGLSGRSG-{K(DNP)-dR}; SMILES COc1ccc2c(CC(=O)NCC(=O)N[C@@H](CO)C(=O)N[C@@H](Cc3c[nH]c4ccccc34)C(=O)NCC(=O)N[C@@H](CC(C)C)C(=O)N[C@@H](CO)C(=O)NCC(=O)N[C@@H](CCCNC(=N)N)C(=O)N[C@@H](CO)C(=O)NCC(=O)N[C@@H](CCCCNc3ccc([N+](=O)[O-])cc3[N+](=O)[O-])C(=O)N[C@H](CCCNC(=N)N)C(=O)O)cc(=O)oc2c1) [CM WGLSGRS]
–	–	5.10	–	12.9	(MCA)-Ser-Pro-Trp-Gly-Leu-Ser-Gly-Gly-Gly-Ser-Lys (DNP)-D-Arg (Mca-SPWGLSGGGS-{K(DNP)-dR}; SMILES COc1ccc2c(CC(=O)N[C@@H](CO)C(=O)N3CCC[C@H]3C(=O)N[C@@H](Cc3c[nH]c4ccccc34)C(=O)NCC(=O)N[C@@H](CC(C)C)C(=O)N[C@@H](CO)C(=O)NCC(=O)NCC(=O)NCC(=O)N[C@@H](CO)C(=O)N[C@@H](CCCCNc3ccc([N+](=O)[O-])cc3[N+](=O)[O-])C(=O)N[C@H](CCCNC(=N)N)C(=O)O)cc(=O)oc2c1) [CM PWGLSG]
